The target of data set [1] is XPA full length M2 (human, UniProt P23025 1-273, E106K;F112A). Kind of data set: EMSA. Background: In EMSA bound probe runs differently from free probe, usually more slowly.
The target of data set [2] is RPA70AB (UniProt P27694 181-422). Kind of data set: NMR.
Data set [3] has as its target XPA globular core (XPA98-219);RPA70AB (human;human?, UniProt P23025;P27694 98-219;181-422, |). Kind of data set: NMR.
In data set [4] the target is RPA70AB (RPA70 181-422), tandem ssDNA-binding domains A and B of RPA70 (human, UniProt P27694 181-422). In words: SEC-MALS.
Chain of RPA70AB (RPA70 181-422), tandem ssDNA-binding domains A and B of RPA70 (P27694 181-422): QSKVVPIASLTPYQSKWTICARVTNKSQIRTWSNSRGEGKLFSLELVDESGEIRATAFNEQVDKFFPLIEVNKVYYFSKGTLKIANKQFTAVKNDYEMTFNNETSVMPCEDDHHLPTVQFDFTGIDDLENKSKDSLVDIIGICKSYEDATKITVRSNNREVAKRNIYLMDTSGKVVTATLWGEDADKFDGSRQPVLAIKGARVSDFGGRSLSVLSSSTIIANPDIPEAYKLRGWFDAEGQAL

Chain of RPA70AB (P27694 181-422): as above
Chain of XPA globular core (XPA98-219);RPA70AB (P27694 181-422, one chain of several): as the sequence (P27694 181-422) above
Chain of XPA full length M2 (P23025 whole entry E106K/F112A): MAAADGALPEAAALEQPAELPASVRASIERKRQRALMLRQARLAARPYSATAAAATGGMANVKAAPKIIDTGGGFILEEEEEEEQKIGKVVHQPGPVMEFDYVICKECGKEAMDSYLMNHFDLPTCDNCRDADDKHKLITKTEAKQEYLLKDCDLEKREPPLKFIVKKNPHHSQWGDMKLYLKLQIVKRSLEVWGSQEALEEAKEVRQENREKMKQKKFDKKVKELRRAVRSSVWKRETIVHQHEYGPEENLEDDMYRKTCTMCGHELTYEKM

B1: FAM three-way junction (EMSA) (structured_DNA)
DNA 1: GTTCGTCAGGATTCCAATTCGTGCAGGCAT
DNA 2: ATGCCTGCACGAATTAAGCCATTCGTAATCATGGT
DNA 3: ACCATGATTACGAATGGCTTGGAATCCTGACGAAC
In the case of B1, in data set [1], the binding result is given as “binds”.

With CCCCCCCC (ssDNA) [dC8], the binding result in data set [2] and in data set [3] was “binds” in each case.

B2: XPA DNA-binding domain (XPA 98-239), wild type (domain or fragment, human, UniProt P23025 98-239, looked up)
chain: MEFDYVICEECGKEFMDSYLMNHFDLPTCDNCRDADDKHKLITKTEAKQEYLLKDCDLEKREPPLKFIVKKNPHHSQWGDMKLYLKLQIVKRSLEVWGSQEALEEAKEVRQENREKMKQKKFDKKVKELRRAVRSSVWKRET
Regarding B2, the binding result in data set [4] is “binds”.

The record behind these values is publication PMC7038936 (Nucleic Acids Research, 2020).
